In PMC10251734:

Target: SARS-CoV-2 Wuhan-Hu-1 spike, soluble trimeric, residues 1-1204, 6 proline mutations (SARS-CoV-2) (UniProt P0DTC2)
Experiment: SEC

SARS-CoV-2 Wuhan-Hu-1 spike, soluble trimeric, residues 1-1204, 6 proline mutations (from UniProt P0DTC2 14-1204) (domain or fragment)
stoichiometry N: 3
